Data: patent publication US20210032352A1 (ANTERA THERAPEUTICS, published 2021)

How the values were obtained:
[1] = molecular target: LRP6 on HEK293/HEK293T reporter cells (UniProt O75581 20-1613, limits assumed); assay: cell-based or functional assay
FZD1 CRD, Fc-tagged [2] = molecular target: T1, FZD1 CRD, Fc-tagged (human, UniProt Q9UP38 70-250); assay: kinetic table (called BLI in paragraph 170)
T1 construct: domain: CRD; Bought; not shown: Fc tag of the purchased fusion

FZD2 CRD, Fc-tagged [3] = molecular target: T2, FZD2 CRD, Fc-tagged (human, UniProt Q14332 24-190); assay: kinetic table (called BLI in paragraph 170)
T2 construct: domain: CRD; Bought; not shown: Fc tag of the purchased fusion

FZD7 CRD, Fc-tagged [4] = molecular target: T3, FZD7 CRD, Fc-tagged (human, UniProt O75084 33-185); assay: kinetic table (called BLI in paragraph 170)
FZD6 ECD, Fc-tagged = molecular target: T4, FZD6 ECD, Fc-tagged (human, UniProt O60353 19-132); assay: kinetic table (called BLI in paragraph 35)
T4 construct: range 19-132; Made in Expi293 cells; single protomer species purified by size exclusion; not shown: human IgG1 Fc of the pFUSE-hIgG1-Fc2 vector (Invivogen)
T4 sequence (looked up): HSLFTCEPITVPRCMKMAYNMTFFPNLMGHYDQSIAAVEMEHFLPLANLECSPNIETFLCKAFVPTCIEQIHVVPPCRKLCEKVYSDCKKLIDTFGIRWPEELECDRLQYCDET

FZD1 CRD, Fc-tagged [5] = molecular target: T1, FZD1 CRD, Fc-tagged; assay: kinetic table (called BLI in paragraph 35); quantity name and unit not printed in the table: KD in M follows from FIG. 12A, same values in nM
FZD2 CRD, Fc-tagged [6] = molecular target: T2, FZD2 CRD, Fc-tagged; assay: as above
FZD7 CRD, Fc-tagged [7] = molecular target: T3, FZD7 CRD, Fc-tagged; assay: as above
FZD1 CRD, Fc-tagged [8] = molecular target: T1, FZD1 CRD, Fc-tagged; assay: kinetic table (called BLI in paragraph 170); the row labels kd and ka are interchanged on the sheet: the KD row equals the 10^-3 row divided by the 10^5 row
FZD2 CRD, Fc-tagged [9] = molecular target: T2, FZD2 CRD, Fc-tagged; assay: as above
FZD7 CRD, Fc-tagged [10] = molecular target: T3, FZD7 CRD, Fc-tagged; assay: as above
[11] = molecular target: T5, human LRP6 ECD, Fc-tagged (human, UniProt O75581 20-1370); assay: as above
T5 construct: extracellular domain; Bought; also called LRP co-receptor; not shown: Fc tag of the purchased fusion
T5 sequence (looked up): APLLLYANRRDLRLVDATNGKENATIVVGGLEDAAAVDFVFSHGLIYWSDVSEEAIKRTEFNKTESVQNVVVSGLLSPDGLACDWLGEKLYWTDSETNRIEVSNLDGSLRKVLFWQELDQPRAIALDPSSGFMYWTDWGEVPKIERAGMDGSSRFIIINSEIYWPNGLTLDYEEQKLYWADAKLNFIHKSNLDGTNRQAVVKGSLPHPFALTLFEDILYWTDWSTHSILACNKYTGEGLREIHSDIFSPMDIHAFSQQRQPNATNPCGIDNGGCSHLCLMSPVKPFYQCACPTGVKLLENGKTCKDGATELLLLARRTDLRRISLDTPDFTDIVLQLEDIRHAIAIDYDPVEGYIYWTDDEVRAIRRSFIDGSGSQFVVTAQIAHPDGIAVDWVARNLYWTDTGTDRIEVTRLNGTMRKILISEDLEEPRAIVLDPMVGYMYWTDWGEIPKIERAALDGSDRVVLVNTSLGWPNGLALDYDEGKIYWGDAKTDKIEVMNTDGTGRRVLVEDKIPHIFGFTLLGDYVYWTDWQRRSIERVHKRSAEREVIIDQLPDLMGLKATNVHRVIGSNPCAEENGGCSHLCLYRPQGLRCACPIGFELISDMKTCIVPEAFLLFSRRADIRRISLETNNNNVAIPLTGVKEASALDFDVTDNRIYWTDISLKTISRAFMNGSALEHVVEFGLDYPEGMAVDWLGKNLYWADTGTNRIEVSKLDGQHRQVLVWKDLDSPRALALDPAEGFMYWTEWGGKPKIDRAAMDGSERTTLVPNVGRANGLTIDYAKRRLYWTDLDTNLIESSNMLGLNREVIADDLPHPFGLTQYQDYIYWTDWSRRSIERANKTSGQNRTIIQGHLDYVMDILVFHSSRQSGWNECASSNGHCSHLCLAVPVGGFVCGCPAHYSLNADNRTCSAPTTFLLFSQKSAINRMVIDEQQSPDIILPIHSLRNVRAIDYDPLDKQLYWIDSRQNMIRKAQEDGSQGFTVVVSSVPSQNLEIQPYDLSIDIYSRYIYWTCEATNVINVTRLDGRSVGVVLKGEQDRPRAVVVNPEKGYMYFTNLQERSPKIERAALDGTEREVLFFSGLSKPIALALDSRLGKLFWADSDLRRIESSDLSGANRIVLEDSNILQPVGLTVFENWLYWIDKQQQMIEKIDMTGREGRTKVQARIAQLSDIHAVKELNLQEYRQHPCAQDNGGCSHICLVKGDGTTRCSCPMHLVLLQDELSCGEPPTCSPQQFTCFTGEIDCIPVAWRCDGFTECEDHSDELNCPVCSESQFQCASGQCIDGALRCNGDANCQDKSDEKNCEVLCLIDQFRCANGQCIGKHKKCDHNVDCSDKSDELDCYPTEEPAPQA

T1 sequence (Q9UP38 70-250): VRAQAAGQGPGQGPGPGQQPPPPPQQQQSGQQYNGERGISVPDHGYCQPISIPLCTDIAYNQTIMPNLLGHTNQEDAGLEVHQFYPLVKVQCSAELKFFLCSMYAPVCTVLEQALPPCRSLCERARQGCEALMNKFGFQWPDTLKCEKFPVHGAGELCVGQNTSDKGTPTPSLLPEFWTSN

B1: F^P+P-L6^1+3 (5019-K/H-2539-2542) (bispecific antibody)
chain 1: EVQLVESGGGLVQPGGSLRLSCAASGFNIGSSSIHWVRQAPGKGLEWVASIYSAFASTSYADSVKGRFTISADTSKNTAYLQMNSLRAEDTAVYYCARYHFPFGFALDYWGQGTLVTVSSGGGGSDIQMTQSPSSLSASVGDRVTITCRASQSVSSAVAWYQQKPGKAPKLLIYSASSLYSGVPSRFSGSRSGTDFTLTISSLQPEDFATYYCQQGVYLFTFGQGTKVEIKLEDKTHTKVEPKTSDKTHTCPPCPAPELLGGPSVFLFPPKPKDTLMISRTPEVTCVVVDVSHEDPEVKFNWYVDGVEVHNAKTKPREEQYNSTYRVVSVLTVLHQDWLNGKEYKCKVSNKALPAPIEKTISKAKGQPREPMVFDLPPSREEMTKNQVSLWCMVKGFYPSDIAVEWESNGQPENNYKTTPPVLDSDGSFFLYSKLTVDKSRWQQGNVFSCSVMHEALHNHYTQKSLSLSPGKSGSETPGTSESATPESGGGEVQLVESGGGLVQPGGSLRLSCAASGFNISYSSIHWVRQAPGKGLEWVAYISSYYGYTYYADSVKGRFTISADTSKNTAYLQMNSLRAEDTAVYYCARAHYFPWAGAMDYWGQGTLVTVSSGGGGSDIQMTQSPSSLSASVGDRVTITCRASQSVSSAVAWYQQKPGKAPKLLIYSASSLYSGVPSRFSGSRSGTDFTLTISSLQPEDFATYYCQQYYWPITFGQGTKVEIK
chain 2: EVQLVESGGGLVQPGGSLRLSCAASGFNIGSSSIHWVRQAPGKGLEWVASIYSAFASTSYADSVKGRFTISADTSKNTAYLQMNSLRAEDTAVYYCARYHFPFGFALDYWGQGTLVTVSSGGGGSDIQMTQSPSSLSASVGDRVTITCRASQSVSSAVAWYQQKPGKAPKLLIYSASSLYSGVPSRFSGSRSGTDFTLTISSLQPEDFATYYCQQGVYLFTFGQGTKVEIKLEDKTHTKVEPKSSDKTHNCPPCPAPELLGGPSVFLFPPKPKDTLMISRTPEVTCVVVDVSHEDPEVKFNWYVDGVEVHNAKTKPREEQYNSTYRVVSVLTVLHQDWLNGKEYKCKVSNKALPAPIEKTISKAKGQPREPQVYTLPPIRELMTSNQVSLSCAVKGFYPSDIAVEWESNGQPENNYKTTPPVLDSDGSFFLVSKLTVDKSRWQQGNVFSCSVMHEALHNHYTQKSLSLSPGKSGSETPGTSESATPESGGGEVQLVESGGGLVQPGGSLRLSCAASGFNISSYYIHWVRQAPGKGLEWVASIYSSYGYTSYADSVKGRFTISADTSKNTAYLQMNSLRAEDTAVYYCARTVRGSKKPYFSGWAMDYWGQGTLVTVSSGGGGSDIQMTQSPSSLSASVGDRVTITCRASQSVSSAVAWYQQKPGKAPKLLIYSASSLYSGVPSRFSGSRSGTDFTLTISSLQPEDFATYYCQQYSWGPFTFGQGTKVEIK
EC50 of activation of a LEF/TCF reporter gene in HEK293T cells [1]: ~5 nM | ß-catenin luciferase reporter assay in HEK293 cells, activation over background [1]: ~400 fold over background | Kd (FZD1 CRD, Fc-tagged [2]): < 0.01 nM | Kd (FZD2 CRD, Fc-tagged [3]): 0.04 nM | Kd (FZD7 CRD, Fc-tagged [4]): 0.06 nM | binding result (FZD6 ECD, Fc-tagged): no binding | Kd (FZD1 CRD, Fc-tagged [5]): < 0.01 nM | Kd (FZD2 CRD, Fc-tagged [6]): 0.039 nM | Kd (FZD7 CRD, Fc-tagged [7]): 0.057 nM | koff (FZD1 CRD, Fc-tagged [8]): < 1e-06 s⁻¹ | kon (FZD1 CRD, Fc-tagged [8]): 395000 M⁻¹ s⁻¹ | koff (FZD2 CRD, Fc-tagged [9]): 1.9e-05 s⁻¹ | kon (FZD2 CRD, Fc-tagged [9]): 479000 M⁻¹ s⁻¹ | koff (FZD7 CRD, Fc-tagged [10]): 2.9e-05 s⁻¹ | kon (FZD7 CRD, Fc-tagged [10]): 509000 M⁻¹ s⁻¹ | koff [11]: 0.00181 s⁻¹ | kon [11]: 152000 M⁻¹ s⁻¹
